The data set in a line: label from the status in PepcDB records.
As to “MILTSTEGQEGLPRYFPQVMKMLARMQAGRLDIALPDGRVFRSEGPEPGPVARVDIHDTDVFARLIREGELGFSDAYLEQDWSTPDLRAFMDLVHQGEETVYDGFTGQFLARAYERLRFWLQRNHRKQAKKNISYHYDLGNDFYALWLDETMTYSSALFETGQESLEKAQEAKYASLLDEMGAQPGDHILEIGCGWGGFAEYAARQRGMRVTGLTISQEQFKFARERIEKAGLSDQVHFKLQDYRDETGSYDGIASIEMFEAVGEKYWPVYFDTVRARLKPGKRATLQIITVADRRWEIYRNGVDFIQKYIFPGGMLPAPGILREQVARAGLEFVQSREFGKSYDLTLRRWYETFNDKWDQVAELGFDDRFRRMWNFYLTSCGAAFDTGTCDVTQMTVARPNHS”, the protein production result is on record as “failed”.

“YVTSQIHAKGSDLAKLMQIAALKGNEEVLDVATGGGHVANAFAPFVKKVVAFDLTEDILKVARAFIEGNGHQQVEYVQGDAEQLPFTDERFHIVTCRIAAHHFPNPASFVSEAYRVLKKGGQLLLVDNSAPENDAFDVFYNYVEKERDYSHHRAWKKSDWLKMLEEAGFELEELHCFHKTFIFEDWCDRMNVTTEKKQELSDFIKSKPTEYYQKFKIVVEDGRVYSFRGESILMKARKPTVKNKGSS”: the protein production result is recorded as “not failed”.

“YLGPQGTFTHQAAVNAAQELARFEPQGFDLMPMDDVPQILDAAQHGDGWGIVAWENNVEGYVVPNLDALIDAKDLVGFARVGVNVEFDAYVAQGADPAEARIATAHPHGLAQCKRFIAEHRLSTQPATSNAAACRDLIPGEIAFGPAICGELYDITRIGTAIQDYQGAATDFLVLSPRAE”: the protein production entry was “failed”.

For the sequence “TETSPDKWLIDGDTPLDEVERAIGYELPEGDYETISGLLFDHANALLKTGDVIEIPLDFEPEDYLNNTSPTQRILRITVLEVERNVPVKLALALLEDHPDNHPAPKENR”, the protein production result was “not failed”.

“MDKKYDITAVLNEDSSMTAISDQFQITLDARPKHTAKGFGPLAALLSGLAACELATANLMAPAKMITINKLLMNVTGSRSTNPTDGYFGLREINLHWEIHSPNSETEIKEFIDFVSKRCPAHNTLQGVSQLKINVNVTLVH”: the protein production entry was “not failed”.

Regarding “MIDTIIISLIAFSILVSLWRGFISEVLSLSGWIAAFFVASTFYPYLSSYLNEIDSVYLQNSEYLRNGIAAAILFIITLILCGIVNALLSKIINTTGLSATDRVLGIAFGALRGILIVAAILFFIDTFTTSNQTELWQESQLIPHFDFIVKWFFEQLQANSSFLNSTTTTK”, the protein production result is listed as “failed”.

Regarding “MQAGSMSAPKQLVIIGAGEFAQIACEYFQHDSHYTVVAFSVERDFLLQHTLAELPVVAYEELEQRYPPEQYEVFVAIPATRLNRLRTRFFQDVVQRGYRCATYVSSRAFVWHNAQIGANCFIFEGNVIQPFTRIGDNCVLWSGNHIGHRTAVRDHVFIASHAVISGYCEIGQGSFIGVNATLSDKVHIAANNIIGAGALVTRHTEAERVYVGSPARAVAGRSSFDVEL”, the protein production result was “failed”.

In the case of “MSGWYELSKSSNDQFKFVLKAGNGEVILTSELYTGKSGAMNGIESVQTNSPIEARYAKEVAKNDKPYFNLKAANHQIIGTSQMYSSTAARDNGIKSVMENGKTTTIKDLTLEHHHHHH”, the protein production result is reported as “not failed”.

Turning to “MLVRTLSALECTKVLTANRVGRLACAKDGQPYVVPLYYAYSDAHLYAFSMPGKKIEWMRANPRVSVQVDEHGQGRGWKSVVVDGRYEELPDLIGHKLQRDHAWSVLSKHTDWWEPGALKPVTPPTADSAPHVFFRILIEQVSGREASE”, the protein production result is “not failed”.

As to “MNAPTVFESFSPDSGGVKTQLIIRGQNFGTDTAYLKVTVNNKRAAIVGVADDVIYAIVPARADTGYVRLFVGKDDNVEEYASQTKFIYQFKRNVTTLMGRQGQSGRDDGPYAECKLQRPWFALADKDGALFFIDEGRGQNKNGALRRAQEGWVETLVQNSSGPFQSPTCLAFNPKQDTLYISNMSYGSDIKTSFNILYVTREGGFMDVKGLCKFEKAETQGLAVHPQTGEIFFCNKSGGYIYRFNGPDYEDYEPLFQINRADKIDTRMVFNPEGTALFVVVCNRHCIYKVPYNALTHTFGEPELFAGGWDESGYVNGSGVTARFDNPRQPAFDQDGNMFVPEYGRHTIRKITPTGEVSLYAGLPGQAGFTDGLPEKARFNKPECVTVYLDNSLYVADRDNHLIRRVTVELEHHHHHH”, the protein production entry is reported as “failed”.

Consider “MKMANHPRPGDIIQESLDELNVSLREFARAMEIAPSTASRLLTGKAALTPEMAIKLSVVIGSSPQMWLNLQNAWSLAEAEKTVDVSRLRRLVTQSTP”, for which the protein production result is recorded as “not failed”.

With “MTSRFMLIFAAISGFIFVALGAFGAHVLSKTMGGVEMGWIQTGLEYQAFHTLAILGLAVAMQRRISIWFYWSSVFLALGTVLFSGSLYCLALSHLRLWAFVTPVGGVSFLAGWALMLVGAIRLKRKGVSHE”, the protein production result is given as “failed”.

For “MLEIVAAIFIVLLGSGICSCAEAALFSVPLVKVRQLSQSNNPSAIALQAIRHRMNRPIGTIVVLNNIFNIVGSITIGALATKHLQDAWMGVFSGILTLLIIVFGEIIPKTLGERYATNIALLIAIPVRFLTLIFTPLVWLIEQITNPFTHGKRVPSTNEAEIKFLATLGYKEGVIEGDEEQMIQRVFQLNDLMAVDLMTPRVIITYLLGELTLAECQQDIIQSQHTRILIVDEYIDEVLGIALKQDLLTALIQGEGYKTIAELARPAQFVPEGMRADKLLKQFQEKREHLMVVIDEYGGVAGVITLEDVVEVLTGEIVDETDKNIDLQEIARKKRQALLKQRGVAP”, the protein production result is “failed”.

As to “MKKFQEMCQEEFEKIELMARGGQKIVFDGVHNSYGETVIKLYFQLNDPRSLREIQIERDLNLSMVPKIYETGTIEYEGTETLYIIEQKVKGTELRKVLESGKRFSLEEAVTFLEQGLEFIACIENKGIVHRDIKPENIIRADDGRIFFLDFGIARILGADSLTRTGAMMGPHTPGYAAPEQFNNLKKEIDSRADIFSLGVVTYECITGKNPFREGSINALEVLQKTETITPVQYSIKGDTQSQFMALLGAMMGKYPSRRPRTAKQAIDWLKVAKKTFVYE”, the protein production entry is “failed”.

As for “MQATMTDKNTRELLLDAATTLFAEQGIAATTMAEIAASVGVNPAMIHYYFKTRDSLLDTIIEERIGRIIDMIWEPVTGEEDDPLIMVRDLVNRIVNTCETMLWLPSLWIREIVNEGGALREKMLNNIPIDKMNKFSAKIAEGQKQGVINSGIDSRLLIGSIIGLTMLPLATAKLRDQIPTMKGLSSEDIVCHVTALLFTGLTNPSNSDDIKKQRT”, the protein production result was “not failed”.

In the case of “MEDWWFSWLSRTNLEPSLIHEYGLSFSQNELEHEDISYFDHEFLQSMGISIAKHRLEILKLARRDRKNSPPLTSRSISRVVTAIKKTRKCLSDHVRAWIRREEESASSRALVLVPKKTSNGIGKWRGGFLKRNKRSVMPSNGNGGLEKQERLLLTNGTPCRIDSFSSPMVFDYSFKDEKLYAQDTYFEDIKWDSMFQNLKPT”, the protein production entry is “failed”.

For the sequence “MKKAAAYTFCFLLLSGVGIILFMDIHPAFGGIPTTEQKEAYRELDNYVDGNFVNDVPTRRAFVDPSDTTSTTNTSASEVKDRNPVSPIPVYVIDWNKINSENDSLTWFGHSAFLLNVDNKQLLIDPMLGPVVSPVSFVGRNRYEYSEDIMLHLIDEMPPIDAVLITHDHYDHLDYRSIVKLNNKVSHFFVPLGCSAHLIRWGIPEEKITELNWWEETEYQGLTVALTPSRHSSGRNPFNIDTTLWGGWVILGNKTRVYTSGDSGYGPHFKQIGDKYGPFDITLIEGAQYDRNWPDLHMVPEQAIQANLDVGGKTMMLMHWGAFTLANHAWNEPIERALKEAKIREVNIIAPMIGETVLLDSDLQTSPTSWWDF”, the protein production entry is recorded as “failed”.

For the sequence “MNSIVSTVRGILTLSRSETFDSPRDEAKSDLKVLSVAWNQVCSGFIVGTNHGFNVYSCKPMIKKSISRAPHESGFKVAEMLFLSNLFAFVGNGYNNSEYPPNKVFVWDDYRNCCLSELTFKSEVIAVKLAREHVVVVLKQNIYVYTFNNLKVDRVIETLMNPKGLCCVTHVESKAVLACPGFHPGQVQVHDLRWNVIKFIKAHDSAIACMTLTLDGSLLATASTKGTLIRIFNAVDGTLLQEFRRGVERAEIYNVAISSNLKWVAASSEKGTLHVFRLRPDILSFDPASSSSFIRVILPKYLYENERSFAQFSLPASTKFIVGFGSENTVLLVGIDGSFRRCKFDHADGGQMVELEHKYFFSLQETGNTMVGGV”, the protein production result was “failed”.

For the sequence “MSLIRWLVERWLEFMGNHPFLFGTLAILIVLFFIFEGQRNGRKISPQSLGILIKAKNAQLIDLRDAKDFREGHISGSRNIPYSQITSHVDELKASERPLVFICNLGQVAGSALQKIGHADSYRLDGGISNWKAQGLPLVKAKTKA”, the protein production entry was “failed”.

Turning to “MLLITPDELKSYSVFESVKTRPDELLKQDILEATADIILKVGHDFSDAEYIPLPETVRLALLKLSQFYALINGDESIIKGYTTEKIGDYSYTLGDGSPLQKPDVYALIKDYVKPADPDLEGIEAKVRMRSILEHHHHHH”, the protein production result was “not failed”.

With “VGDGKNQIFVKSLDGYREVQITDEKEGVSTFKWGPTGKGLYYVTQSKECEEIKKRKDLYGDFQHIGKEHQNNCLYYIEIEKVIQSDTDEHKNRVVYQLTDGKDFHIHEFDISNDGKKVVFMATPSSNMADYINGDLYILHIKAGELQKLNVDKLLGGSVCFSPDGSEICYTASIREKGYYRNHIQDSTLEIYDINTGELIQPLTDFD”, the protein production result is recorded as “failed”.

Consider “MKIATYNVRVDTEYDQDWQWSFRKEAVCQLINFHDWSLCCIQEVRPNQVRDLKAYTTFTCLSAEREGDGQGEGLAILYNEQKVQAIDTGYFWLSETPQQPSIHPEAGCPRIALWGLFKETTQNTPFLVINVHLDHISAHARLAGMTVILEELHDKIAQYPTLLMGDFNAESGEEVHQLVQKKFQDSKNLATHYGPRGTFQNFTYTKPWAELEEIDYIYVKGWQVQQTASLTDSIDGRFPSDHFPLEAEV”, for which the protein production entry is recorded as “not failed”.

“MNSKENLKIVQLSDLHIKKDFNADRLDKVIQKTNEQNPDFIIFSGDLYDNYSQYNENEAVISKLKSLKAKYGKIAIWGNRDYGGGAVKEYANIMAESDFSLLRNENQVFTLDNGKKILFTGLDDALLGNPQFPSLEHHHHHH”: the protein production result was “not failed”.

Turning to “EPVQLTVPQMLAQLQGTDTSLRYYAAWWLGKFGLETATAAERQAIVSALIAALADEADRTELGGYPLRRNAARALGKLGDRQAVPALIECLRCEDFYVREAAAIALGQLGDPRAIAPLQSLLEGGVAMARLVPGRPHLVQPVEAVIESLGHLGATEAIALIEPFLAHEMPRVQFAAARALFQLTGDAVYGDRLLAALNSEDVQLRRTALLDLGAMGYLPAAEAILQAGVEASFKLIALHGILGQQLRQAAPAEQTLSLFQGLDQLL”, the protein production result was “failed”.

For “HSGEDLPMVAPGNVRVNVVNSTLAEVHWDPVPLKSIRGHLQGYRIYYWKTQSSSKRNRRHIEKKILTFQGSKTHGMLPGLEPFSHYTLNVRVVNGKGEGPASPDRVFNTPEG”, the protein production result is recorded as “not failed”.

“MATESSSPSSVRKVVVHLRATGGAPILKQSKFKIPGTDKFAKVIDFLRRQLHSDSLFVYVNSAFSPNPDESVIDLYNNFGFDGKLVVNYACSMAWG”: the protein production result was “failed”.

Source of the values: a protein production outcome set (Wang et al. 2014).
